Source: patent publication US11260100B2, “Compositions targeting the interaction domain between p27Kip1 and Brk and methods of use thereof to inhibit p27 Y phosphorylation and cdk4 activity” (The Research Foundation for the State University of New York, priority 2014, dated 2022)

Legend:
[1] = biological target: T1, cdk2 (Homo sapiens, UniProt P24941); test: Immunoblot of cdk2T160 as measure of activated cdk2 (FIG. 10); type: cell-based; conditions: MCF7, drugs at IC50
T1 construct: added to or expressed in MCF7 breast cancer cells on day 2 post plating; endogenous in cells; host or cells: MCF7 (ALT-MCF7 tetracycline-inducible line)
Protocol: FIG. 10: ALT BRK inhibits both CDK4 and CDK2. ALT, Palbociclib alone or in combination were added to or expressed in MCF7 breast cancer cells on day 2 post plating. Drugs were added at their IC50 concentration, based on previous results. ALT is expressed from an ALT-MCF7 tetracycline inducible cell line generated in the Blain lab. When tetracycline is added to the cell culture media, ALT is expressed in these cells. Vector: no tetracycline was added, so no ALT induction was detected. Drugs and media were replaced every two days. Cells were harvested every two days, lysed and used in immunoblot analysis. Actin: loading control. pRBser780 is a phospho-specific antibody that recognizes sites phosphorylated by cdk4, so is a measure of active cdk4. cdk2T160 recognizes a required phosphorylation event on residue […] and is a measure of activated cdk2.
(§1) Additional experiments were performed assessing activity of Brk in combination with Palbociclib. The data presented in FIGS. 9A and 9B reveal that Palbociclib and Brk inhibit proliferation for 2 days, and then resistance is observed (proliferation increases). Alt maintained arrest for roughly 10 days (50% inhibition of proliferation is detected). […] Alt-Brk/Palbociclib combination leads to a more durable cell cycle arrest. Mono therapy treated cells start to become resistant between day 8-10. […]

[2] = test system: MCF7 breast cancer cells; test: Proliferation with ALT and Palbociclib at IC50 concentration (FIG. 9); type: cell-based, human
Protocol: FIGS. 9A-9B: AltBrk Synergizes with Palbociclib. ALT, Palbociclib, or Brk alone or in combination were added to or expressed in MCF7 breast cancer cells on day 2 post plating. Drugs were added at their IC50 concentration, based on previous results. ALT is expressed from an ALT-MCF7 tetracycline inducible cell line generated in the Blain lab. When tetracycline is added to the cell culture media, ALT is expressed in these cells. Vector: no tetracycline was added, so no ALT induction was detected. (FIG. 9A) Cells were harvested and counted every two days, as a measure of proliferation. Proliferation is plotted as a percentage relative to that seen in the DMSO treated control. Drugs and media were replaced every two days. (FIG. 9B) Viability was measured by trypan blue staining, and plotted relative to viability seen in the DMSO treated control.
as §1

B1: Alt-Brk: alternative splice variant of Brk (SEQ ID NO: 17), 15 KD protein with SH3 domain, lacks kinase domain (protein, listed as Homo sapiens)
chain: MVSRDQAHLGPKYVGLWDFKSRTDEELSFRAGDVFHVARKEEQWWWATLLDEAGGAVAQGYVPHNYLAERETVESEPAGHAGCAALQDLAACRGPAAPERGGVLPQPARACELPQGPEPVPRPAAGRALPEARA
cdk2 activity (cdk2T160) [1]: inhibits cdk2
duration of proliferation inhibition / arrest ([2]; drugs at IC50 concentration, replaced every two days): roughly 10 days
inhibition of proliferation ([2]; during arrest): 50%
